From patent US20210380678A1 (published 2021)
Residue numbers refer to the chain shown, from its start. In names and notes the source's numbering stands. Blank lines part the entries; values can stand above or below the binder they belong to.

Tests used:
[1] = molecular target: T1, human ASGR1 extracellular domain (hASGR1 ECD) (UniProt P07306 62-291, biotinylated (His-Avi tag)); assay: BLI
T1 chain: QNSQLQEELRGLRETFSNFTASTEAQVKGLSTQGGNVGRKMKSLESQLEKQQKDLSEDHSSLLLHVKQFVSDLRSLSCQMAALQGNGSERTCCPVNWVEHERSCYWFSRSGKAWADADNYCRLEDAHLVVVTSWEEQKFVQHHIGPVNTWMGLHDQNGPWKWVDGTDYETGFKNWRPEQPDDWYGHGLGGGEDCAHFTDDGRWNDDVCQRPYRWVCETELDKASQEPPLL

[2] = molecular target: T2, mouse ASGR1 extracellular domain (mASGR1 ECD) (biotinylated (His-Avi tag)); assay: BLI
T2 chain: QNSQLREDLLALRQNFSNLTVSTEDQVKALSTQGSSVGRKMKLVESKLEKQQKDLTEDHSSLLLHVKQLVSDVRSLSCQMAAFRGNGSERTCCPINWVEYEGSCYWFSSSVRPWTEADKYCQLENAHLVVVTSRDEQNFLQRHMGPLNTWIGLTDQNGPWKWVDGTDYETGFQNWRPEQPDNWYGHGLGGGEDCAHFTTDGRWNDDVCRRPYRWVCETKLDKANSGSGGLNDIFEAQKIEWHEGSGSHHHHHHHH

[3] = molecular target: T1, human ASGR1 extracellular domain …; assay: BLI
[4] = molecular target: T3, human RNF43 extracellular domain (hRNF43 ECD) (UniProt Q68DV7 44-197, biotinylated (His-Avi tag)); assay: BLI steady-state
T3 chain: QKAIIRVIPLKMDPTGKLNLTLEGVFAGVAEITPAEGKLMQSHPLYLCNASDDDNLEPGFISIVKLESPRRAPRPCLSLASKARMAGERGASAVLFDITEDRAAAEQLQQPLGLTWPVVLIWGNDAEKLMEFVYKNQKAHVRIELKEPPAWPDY

[5] = molecular target: T4, human ZNRF3 extracellular domain (hZNRF3 ECD) (UniProt Q9ULT6 56-219, biotinylated (His-Avi tag)); assay: BLI steady-state
T4 chain: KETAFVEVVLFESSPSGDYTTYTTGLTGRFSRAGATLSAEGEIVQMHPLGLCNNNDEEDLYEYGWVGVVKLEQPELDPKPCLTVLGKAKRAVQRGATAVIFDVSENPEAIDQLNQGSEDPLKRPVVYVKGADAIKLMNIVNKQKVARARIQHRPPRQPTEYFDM

[6] = molecular target: T5, human ASGR2 extracellular domain (hASGR2 ECD) (UniProt P07307 86-311, biotinylated (His/Avi tag)); assay: BLI
T5 chain: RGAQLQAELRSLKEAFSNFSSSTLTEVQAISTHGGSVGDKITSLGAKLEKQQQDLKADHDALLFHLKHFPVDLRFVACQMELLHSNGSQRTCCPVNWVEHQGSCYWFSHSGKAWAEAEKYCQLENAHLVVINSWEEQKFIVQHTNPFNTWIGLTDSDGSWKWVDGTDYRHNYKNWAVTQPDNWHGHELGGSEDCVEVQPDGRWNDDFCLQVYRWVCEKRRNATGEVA

[7] = molecular target: T4, human ZNRF3 extracellular domain …; assay: BLI; steady-state fit
[8] = molecular target: T3, human RNF43 extracellular domain …; assay: BLI; steady-state fit
[9] = molecular target: T6, Fc portion of human IgG1-fused LGR5-ECD (R&D systems) (UniProt O75473 22-557); assay: BLI steady-state
T6 chain: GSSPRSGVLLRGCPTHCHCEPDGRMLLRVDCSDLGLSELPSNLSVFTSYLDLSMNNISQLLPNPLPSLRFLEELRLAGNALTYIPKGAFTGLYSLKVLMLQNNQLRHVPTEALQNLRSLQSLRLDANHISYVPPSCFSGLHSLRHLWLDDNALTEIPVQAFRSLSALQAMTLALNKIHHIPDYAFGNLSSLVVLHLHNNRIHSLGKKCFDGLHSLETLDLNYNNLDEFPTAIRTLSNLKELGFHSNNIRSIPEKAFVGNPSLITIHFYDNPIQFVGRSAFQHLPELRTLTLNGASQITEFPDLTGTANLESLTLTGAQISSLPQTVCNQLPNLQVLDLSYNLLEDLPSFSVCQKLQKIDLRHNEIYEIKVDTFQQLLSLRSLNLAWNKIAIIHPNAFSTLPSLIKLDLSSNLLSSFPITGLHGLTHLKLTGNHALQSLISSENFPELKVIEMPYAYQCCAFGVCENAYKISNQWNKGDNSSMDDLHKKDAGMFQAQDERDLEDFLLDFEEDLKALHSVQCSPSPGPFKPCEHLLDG

[10] = molecular target: T1, human ASGR1 extracellular domain …; assay: BLI; steady-state fit

Kd [4]: 31 nM
Kd [5]: 170 nM
B3: αGFP-RSPO2-RA (anti-GFP, RSPO2 (F105R/F109A)) (other)
chain: QVQLVESGGGLVQPGGSLRLSCAASGFTFSRYGMHWVRQAPGKGLEWVSGISSIGSNTYYADSVKGRFTISRDNSKNTLYLQMNSLRAEDTAVYYCARWYKTYIDVWGQGTLVTVSSGGGGSGGGGSGGGGSDIELTQPPSVSVAPGQTARISCSGDNLGKKYVYWYQQKPGQAPVLVIYGDDERPSGIPERFSGSNSGNTATLTISGTQAEDEADYYCASYDSSHILIVFGGGTKLTVLGSGGSNPICKGCLSCSKDNGCSRCQQKLFFFLRREGMRQYGECLHSCPSGYYGHRAPDMNRCARCRIENCDSCRSKDACTKCKVGFYLHRGRCFDECPDGFAPLEETMECVEGGDYKDDDDKGSHHHHHHHH

Kd [4]: 42 nM
Kd [5]: 160 nM
B4: αGFP-RSPO2-WT (anti-GFP, RSPO2 wild type) (other)
chain: B3 chain with R314F, A318F

Kd [7]: 72 nM
Kd [8]: 44 nM
Kd [9]: 5 nM
B7: αTFR1-RSPO2-WT (anti-TFR1, RSPO2 wild type) (other)
chain: QVQLQQSGPELVRPGVSVKISCKGSGYTFTDYAMHWVKQSHAKSLEWIGGISTYFGRTNYNQKFKGRATMTVDKSSSTAYMELARLTSEDSALYYCARGLSGNYVMDYWGQGTSVTVSSGGGGSGGGGSGGGGSDIVLFQSPASLAVSLGQRATISCRASESVDDYGNSFMHWYQQKPGQPPKLLIYRASNLESGIPARFSGSGSRTDFTLTINPVEADDVATYYCQQSNEAPPTFGGGTKLEIRGSGGSNPICKGCLSCSKDNGCSRCQQKLFFFLRREGMRQYGECLHSCPSGYYGHRAPDMNRCARCRIENCDSCFSKDFCTKCKVGFYLHRGRCFDECPDGFAPLEETMECVEGGDYKDDDDKGSHHHHHHHH

Kd [7]: 75 nM
Kd [8]: 45 nM
B8: αTFR1-RSPO2-RA (anti-TFR1, RSPO2 (F105R/F109A)) (other)
chain: B7 chain with F319R, F323A

More lines, now with the values behind:

B1: LP1-8M24 Fab (Fab, V domains shown)
VH: QVQLQQSGAELARPGASVKLSCKASGYTFTNYGINWVKQRTGQGLEWIGEIFPRSDNTFYNEKFKGKATLTADKSSTTAYMELRSLTSEDSAVYFCARKGRDYGTSHYFDYWGQGTTLTVSS
VL: DIQMTQSPASLSVSVGETVTITCRISENIYSNLAWYQQKQGKSPHLLVYAAINLADGVPSRFSGSGSGTQFSLKINSLQSEDFGSYYCQHFWGTPFTFGSGTKLEIK
Kd [1]: 0.17 nM

B2: anti-ASGR1 Fab (Fab, V domains shown)
VH: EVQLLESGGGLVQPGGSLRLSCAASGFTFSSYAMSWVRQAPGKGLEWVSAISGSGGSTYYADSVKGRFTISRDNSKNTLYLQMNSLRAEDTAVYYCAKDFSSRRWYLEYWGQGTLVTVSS
VL: DIELTQDPAVSVALGQTVRITCQGDSLRSYYASWYQQKPGQAPVLVIYGKNNRPSGIPDRFSGSSSGNTASLTITGAQAEDEADYYCNSLERIGYLSYVFGGGTKLTVLG
Kd [2]: 213 nM
Kd [3]: 349 nM

B5: Abv-3D11 Fab (Fab, V domains shown)
VH: EVQLVESGGGLVQPKGSLKLSCAASGFSFNTYAMNWVRQAPGKGLEWVARIRSKSNNYATYYADSVKDRFTISRDDSESMLYLQMNNLKTEDTAMYYCVRPRYDYWYFDVWGTGTTVTVSS
VL: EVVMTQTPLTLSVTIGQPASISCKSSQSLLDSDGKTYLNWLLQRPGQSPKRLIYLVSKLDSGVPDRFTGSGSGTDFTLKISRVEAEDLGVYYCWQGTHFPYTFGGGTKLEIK
Kd [6]: 110 nM

B6: LP1-2I13 Fab (Fab, V domains shown)
VH: EVQLVESGGGLVKPGGSRKLSCAASGFTFSDYGMHWVRQAPEKGLEWVAYISSGSSTIYYADTVKGRFTISRDNAKNTLFLQMTSLRSEDTAMYYCSRKGGFGDYEKSYAMDYWGQGTSVTVSS
VL: DIQMTQSPASLSASVGETVTITCRASENIYSYLVWYQQKQGKSPQLLVYNAKTLAEGVPSRFSGSGSGTQFSLKINSLQPEDFGSYYCQHHYGTWTFGGGIKLEIK
Kd [1]: 7.3 nM

B9: 024S-E03 Fab (Fab, V domains shown)
VH: QVQLQQSGPGLVKPSQTLSLTCAISGASVSSNSAAWNWIRQSPSRGLEWLGRTYYRSKWYNDYAVSVKSRITINPDTSKNQFSLQLNSVTPGDTAVYYCARWNHEEHYFDYWGQGTLVTVSS
VL: DVVMTQSPATLSFSPGERATLSCRASQSVGSYLAWYQQRPGQAPRPLIYDATNRATGIPTRFSGSGSGTDFTLTISSLEPEDFATYYCQHRRTFGRGTKLEIK
Kd [10]: 180 nM

B10: 024S-D03 Fab (Fab, V domains shown)
VH: B9 VH with A27D, I39M, I71M, K79R, P91L, G92E
VL: B9 VL with D1E, V2I, M4L
Kd [10]: 130 nM

B11: 024S-A04 Fab (Fab, V domains shown)
VH: QVQLQQSGPGLVKPSQTLSLTCAISGDSVSSNSVAWNWMRQSPSRGLEWLGRTYYRSKWYYDYAVSVKSRITINPDTSKNQFSLQLNSVTPEDTAVYYCASWTRGAFDIWGQGTMVTVSS
VL: B9 VL with V2I, V3Q, M4L
Kd [10]: 100 nM

B12: Abv-10B8 Fab (Fab, V domains shown)
VH: DVKLVESGEGLVKPGGSLKLSCAASGFTFSSYAMSWVRQTPEKRLEWVAYISSGGDYIYYVDTVKGRFTISRDNARNTLYLQMSSLKSEDTAVYYCTREGTGGMDYWGQGTSVTVSS
VL: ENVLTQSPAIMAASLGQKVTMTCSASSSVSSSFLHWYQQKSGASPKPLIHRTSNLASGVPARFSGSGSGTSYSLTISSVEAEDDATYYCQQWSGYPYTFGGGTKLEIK
Kd [6]: 230 nM
